Test results published in patent US20240124602A1.

Molecular target: canine CD20 (canine) (UniProt Q3C2E2)
Assay: flow cytometry on canine PBMCs without 18F6 (control), FSC-H/SSC-H subset, Event Count 9100; FL1-H = 2o FITC alone, FL2-H = CD21-PE

Sequence of UniProt Q3C2E2 (Q3C2E2 whole entry): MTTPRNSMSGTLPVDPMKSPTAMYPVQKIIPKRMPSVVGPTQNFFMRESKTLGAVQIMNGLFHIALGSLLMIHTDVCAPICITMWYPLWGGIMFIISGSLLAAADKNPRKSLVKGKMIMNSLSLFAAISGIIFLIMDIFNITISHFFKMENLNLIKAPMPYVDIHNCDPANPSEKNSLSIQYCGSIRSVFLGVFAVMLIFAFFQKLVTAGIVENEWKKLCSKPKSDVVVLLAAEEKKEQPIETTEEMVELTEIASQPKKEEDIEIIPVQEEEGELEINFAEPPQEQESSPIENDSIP

quadrant number, lower left (FL1-H low, FL2-H low); unit not given: 72.5 | quadrant number, lower right (FL1-H low, FL2-H high); unit not given: 22.9 | quadrant number, upper left (FL1-H high, FL2-H low); unit not given: 2.18 | quadrant number, upper right (FL1-H high, FL2-H high); unit not given: 2.37
Substance: 2o FITC (antibody)
